Tests used:
[1] = biological target: T1, antibody raised against ETAG; assay: phage ELISA; anti-E-tag antibody coated
T1 construct: read-out of display; also called E-tag antibody; E tag antibody

DGI-9 (HEC) [2] = biological target: T2, DGI-9 (HEC) (UniProt O14777 1-642, limits assumed); assay: phage ELISA; DGI-9 coated
T2 sequence (looked up): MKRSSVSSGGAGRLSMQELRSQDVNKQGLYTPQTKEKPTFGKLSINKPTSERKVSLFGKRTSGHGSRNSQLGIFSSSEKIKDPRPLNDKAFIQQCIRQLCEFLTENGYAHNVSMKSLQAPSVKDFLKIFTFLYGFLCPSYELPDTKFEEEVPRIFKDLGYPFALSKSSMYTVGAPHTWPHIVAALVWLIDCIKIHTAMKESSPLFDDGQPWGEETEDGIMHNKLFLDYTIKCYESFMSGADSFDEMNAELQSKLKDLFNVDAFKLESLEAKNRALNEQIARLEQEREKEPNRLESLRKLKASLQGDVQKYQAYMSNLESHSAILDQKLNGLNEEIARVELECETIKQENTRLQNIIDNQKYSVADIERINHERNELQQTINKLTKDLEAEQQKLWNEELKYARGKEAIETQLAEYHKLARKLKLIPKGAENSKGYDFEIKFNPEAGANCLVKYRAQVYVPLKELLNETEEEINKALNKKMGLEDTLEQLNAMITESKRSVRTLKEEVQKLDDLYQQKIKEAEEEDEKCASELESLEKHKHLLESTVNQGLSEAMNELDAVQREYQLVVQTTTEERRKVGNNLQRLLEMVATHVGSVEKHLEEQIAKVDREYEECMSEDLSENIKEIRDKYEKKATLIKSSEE

DGI-9 (HEC) [3] = biological target: T2, DGI-9 (HEC); assay: phage ELISA; DGI-9 signal over LDH signal

B1: DGI9-20M-4-A414 (peptide)
peptide: FLLQDFIMDAGSFVKPIGVGGAPVPYPDPLEPR
notes: library 20F; not shown: phage gene III coat protein (pCANTAB5E)
B1 gave an E-Tag [1] of 32.6 ratio over background, a DGI-9 (DGI-9 (HEC) [2]) of 8.7 ratio over background and a DGI9/LDH (DGI-9 (HEC) [3]) of 8.1 ratio.

B2: DGI9-20M-4-E3 (peptide)
peptide: MAGFRGSGLSGYSEARLPRVGAPVPYPDPLEPR
notes: as for B1
B2 showed an E-Tag [1] of 34.5 ratio over background, a DGI-9 (DGI-9 (HEC) [2]) of 7 ratio over background and a DGI9/LDH (DGI-9 (HEC) [3]) of 7.1 ratio.

B3: DGI9-20M-4-A627 (peptide)
peptide: WDWSRFGAQLRGAILGRATGGAPVPYPDPLEPR
notes: library 20R (the E-tag is described for library 20F); not shown: phage gene III coat protein (pCANTAB5E)
In the case of B3, the E-Tag [1] is reported as 27.2 ratio over background, the DGI-9 (DGI-9 (HEC) [2]) is reported as 6 ratio over background and the DGI9/LDH (DGI-9 (HEC) [3]) is reported as 6.5 ratio.

B4: DGI9-20M-4-A12 (peptide)
peptide: SRLALSSQHGLSLVAGRRRGGAPVPYPDPLEPR
notes: as for B3
In the case of B4, the E-Tag [1] is reported as 20.7 ratio over background, the DGI-9 (DGI-9 (HEC) [2]) is reported as 1.9 ratio over background and the DGI9/LDH (DGI-9 (HEC) [3]) is reported as 2.1 ratio.

Source: patent US7056679 (ANTYRA, dated 2006)
